{"source": "patent US9289381B2", "about": "“Stabilization and storage of biological pharmaceutical compositions” (The University of North Carolina at Charlotte, priority 2009, dated 2016)", "test": "Microcalorimetry (DSC) of HEWL dispersions stored in 80% w/w CDHP or 0.1M NaOAc", "format": "physicochemical", "parameters": "Thermal transition midpoint temperature of HEWL: unit not given here", "procedure": "The samples were formulated in 2 ml silanized glass vials to reduce protein-surface interactions, covered with cap and septa, wrapped with parafilm to ensure no drying out of the sample, and stored away from sunlight. They were stirred for at least 24 hours until a homogeneous distribution of protein was obtained. […] The 35 silanized vials were exposed to UV light for 24 hours to ensure sterility. Control samples at equivalent concentrations were also prepared in triplicates in 0.1M NaOAc buffer (pH 4). Samples were tested for thermal stability via microcalorimetry and functional activity via the micrococcus lysodeikticus assay at monthly intervals.\nA MicroCal VP-DSC microcalorimeter was used to assess thermal structural stability of all samples. Baseline repeatability was established with a minimum of 5 buffer-buffer scans. […] HEWL solutions were tested similarly with no dilution of the samples. Between samples, during the filling period of 15° C. to 25° C., the sample cell of the DSC was flushed with at least 25 ml distilled H2O, then at least 15 ml NaOAc to ensure no sample residue remained behind. Thermal profiles, enthalpy changes, and transition temperatures were obtained with Origin software.\nAll formulations were diluted to 0.1-0.5 mg/ml for testing. This allows one to observe how well protein thermal stability and structural integrity is maintained following storage and then dilution into a solution of similar composition as the environment of the body.", "key": {"[1]": {"settings": "stored at 10 mg/ml in Choline dhp, 1 month"}, "[2]": {"settings": "stored at 10 mg/ml in Choline dhp, 2 months"}, "[3]": {"settings": "stored at 10 mg/ml in Choline dhp, 3 months"}, "[4]": {"settings": "stored at 10 mg/ml in Choline dhp, 4 months"}, "[5]": {"settings": "stored at 10 mg/ml in Choline dhp, 5 months"}, "[6]": {"settings": "stored at 100 mg/ml in Choline dhp, 0 months"}, "[7]": {"settings": "stored at 100 mg/ml in Choline dhp, 1 month"}, "[8]": {"settings": "stored at 100 mg/ml in Choline dhp, 2 months"}}, "note": "Where “and” joins values, the source holds several entries; their conditions need not be identical. Identical values can stand only once."}
{"substance": "HEWL: hen egg white lysozyme (HEWL), a well characterized protein, purchased from Worthington Biochem", "values": [{"measurement": "enthalpic change during unfolding at 1 month, % of the maximum (average)", "setting": "10 mg/ml HEWL control formulation (0.1M NaOAc)", "result": 64, "unit": "%"}, {"measurement": "enthalpic change during unfolding at 1 month, % of the maximum (average)", "setting": "10 mg/ml HEWL in 80% w/w CDHP", "result": 87, "unit": "%"}, {"measurement": "enthalpic change during unfolding at 1 month, % of the maximum (average)", "setting": "100 mg/ml HEWL control formulation (0.1M NaOAc)", "result": 60, "unit": "%"}, {"measurement": "enthalpic change during unfolding at 1 month, % of the maximum (average)", "setting": "100 mg/ml HEWL in 80% w/w CDHP", "result": 85, "unit": "%"}, {"measurement": "shelf-life (fraction of folded protein, Cp signal)", "setting": "80% CDHP wt/wt vs 0.1M sodium acetate pH 4.0, 1-3 months at room temperature", "result": "superior shelf-life"}, {"measurement": "drop of Tm over 5 months", "setting": "HEWL control formulations (0.1M NaOAc)", "result": "between one and two degrees"}, {"measurement": "drop of Tm over 5 months", "setting": "HEWL formulated in 80% w/w CDHP", "result": "less than a degree"}, {"measurement": "Enthalpy of unfolding of HEWL", "setting": "stored at 10 mg/ml in 0.1M NaOAc, 0 months", "result": "99.49 kcal/mol and 102.53 kcal/mol and 105.48 kcal/mol"}, {"measurement": "Enthalpy of unfolding of HEWL", "setting": "stored at 10 mg/ml in 0.1M NaOAc, 1 month", "result": "71.64 kcal/mol and 67.32 kcal/mol and 58.77 kcal/mol"}, {"measurement": "Enthalpy of unfolding of HEWL", "setting": "stored at 10 mg/ml in 0.1M NaOAc, 2 months", "result": "53.856 kcal/mol and 52.812 kcal/mol and 56.88 kcal/mol"}, {"measurement": "Enthalpy of unfolding of HEWL", "setting": "stored at 10 mg/ml in 0.1M NaOAc, 3 months", "result": "39.168 kcal/mol and 40.734 kcal/mol and 40.69 kcal/mol"}, {"measurement": "Enthalpy of unfolding of HEWL", "setting": "stored at 10 mg/ml in 0.1M NaOAc, 4 months", "result": "24.8706 kcal/mol and 36.9316 kcal/mol and 26.9568 kcal/mol"}, {"measurement": "Enthalpy of unfolding of HEWL", "setting": "stored at 10 mg/ml in 0.1M NaOAc, 5 months", "result": "18.4 kcal/mol and 20.9 kcal/mol and 22.4 kcal/mol"}, {"measurement": "Enthalpy of unfolding of HEWL", "setting": "stored at 10 mg/ml in Choline dhp (80% w/w CDHP), 0 months", "result": "102 kcal/mol and 101.7 kcal/mol and 108.3 kcal/mol"}, {"measurement": "Thermal transition midpoint temperature of HEWL", "setting": "stored at 10 mg/ml in Choline dhp, 0 months", "result": "346.71 and 346.74"}, {"measurement": "Enthalpy of unfolding of HEWL", "setting": "[1]", "result": "90.932 kcal/mol and 90.855 kcal/mol and 89.61 kcal/mol"}, {"measurement": "Thermal transition midpoint temperature of HEWL", "setting": "[1]", "result": "346.7 and 346.62 and 346.75"}, {"measurement": "Enthalpy of unfolding of HEWL", "setting": "[2]", "result": "80.771 kcal/mol and 79.236 kcal/mol and 79.113 kcal/mol"}, {"measurement": "Thermal transition midpoint temperature of HEWL", "setting": "[2]", "result": "346.84 and 346.81 and 346.39"}, {"measurement": "Enthalpy of unfolding of HEWL", "setting": "[3]", "result": "56.64 kcal/mol and 55.227 kcal/mol and 63.418 kcal/mol"}, {"measurement": "Thermal transition midpoint temperature of HEWL", "setting": "[3]", "result": "346.98 and 346.52 and 346.35"}, {"measurement": "Enthalpy of unfolding of HEWL", "setting": "[4]", "result": "46.7208 kcal/mol and 47.358 kcal/mol and 51.147 kcal/mol"}, {"measurement": "Thermal transition midpoint temperature of HEWL", "setting": "[4]", "result": "346.47 and 346.43 and 346.5"}, {"measurement": "Enthalpy of unfolding of HEWL", "setting": "[5]", "result": "36.9 kcal/mol and 43 kcal/mol"}, {"measurement": "Thermal transition midpoint temperature of HEWL", "setting": "[5]", "result": "346.27 and 346.37 and 346.21"}, {"measurement": "Thermal transition midpoint temperature of HEWL", "setting": "stored at 10 mg/ml in NaOAc, 0 months", "result": "346.68 and 346.77 and 347.14"}, {"measurement": "Thermal transition midpoint temperature of HEWL", "setting": "stored at 10 mg/ml in NaOAc, 1 month", "result": "345.79 and 345.93 and 345.94"}, {"measurement": "Thermal transition midpoint temperature of HEWL", "setting": "stored at 10 mg/ml in NaOAc, 2 months", "result": "345.85 and 345.9 and 345.8"}, {"measurement": "Thermal transition midpoint temperature of HEWL", "setting": "stored at 10 mg/ml in NaOAc, 3 months", "result": "345.72 and 345.9 and 345.48"}, {"measurement": "Thermal transition midpoint temperature of HEWL", "setting": "stored at 10 mg/ml in NaOAc, 4 months", "result": "345.17 and 345.1 and 345.21"}, {"measurement": "Thermal transition midpoint temperature of HEWL", "setting": "stored at 10 mg/ml in NaOAc, 5 months", "result": "345.13 and 345.05 and 345.15"}, {"measurement": "Enthalpy of unfolding of HEWL", "setting": "stored at 100 mg/ml in 0.1M NaOAc, 0 months", "result": "101.14 kcal/mol and 105.2 kcal/mol and 108.2 kcal/mol"}, {"measurement": "Enthalpy of unfolding of HEWL", "setting": "stored at 100 mg/ml in 0.1M NaOAc, 1 month", "result": "62.01 kcal/mol and 56.61 kcal/mol and 71.973 kcal/mol"}, {"measurement": "Enthalpy of unfolding of HEWL", "setting": "stored at 100 mg/ml in 0.1M NaOAc, 2 months", "result": "58.311 kcal/mol and 60.858 kcal/mol and 54.729 kcal/mol"}, {"measurement": "Enthalpy of unfolding of HEWL", "setting": "stored at 100 mg/ml in 0.1M NaOAc, 3 months", "result": "46.606 kcal/mol and 46.506 kcal/mol and 46.224 kcal/mol"}, {"measurement": "Enthalpy of unfolding of HEWL", "setting": "stored at 100 mg/ml in 0.1M NaOAc, 4 months", "result": "30.8889 kcal/mol and 32.07177 kcal/mol and 29.8026 kcal/mol"}, {"measurement": "Enthalpy of unfolding of HEWL", "setting": "stored at 100 mg/ml in 0.1M NaOAc, 5 months", "result": "26.8 kcal/mol and 29.1 kcal/mol and 23.9 kcal/mol"}, {"measurement": "Enthalpy of unfolding of HEWL", "setting": "[6]", "result": "107.1 kcal/mol and 100.7 kcal/mol and 108.3 kcal/mol"}, {"measurement": "Thermal transition midpoint temperature of HEWL", "setting": "[6]", "result": "347.45 and 347.05 and 347.11"}, {"measurement": "Enthalpy of unfolding of HEWL", "setting": "[7]", "result": "89.97 kcal/mol and 89.606 kcal/mol and 87.876 kcal/mol"}, {"measurement": "Thermal transition midpoint temperature of HEWL", "setting": "[7]", "result": "346.41 and 346.54 and 346.44"}, {"measurement": "Enthalpy of unfolding of HEWL", "setting": "[8]", "result": "75.132 kcal/mol and 76.824 kcal/mol and 77.544 kcal/mol"}, {"measurement": "Thermal transition midpoint temperature of HEWL", "setting": "[8]", "result": "346.42 and 346.43 and 346.47"}]}
